Columns and labels:
[1] = target: fluoroacetate dehalogenase (FAcD) RPA1163 (Rhodopseudomonas palustris, UniProt Q6NAM1, Y219F); assay: isothermal microcalorimetry steady-state kinetics; format: biochemical; settings: read-out: Fluoroacetate / Km; 100 mM Tris-H2SO4 pH 8.5, 30°C
[2] = target: fluoroacetate dehalogenase (FAcD) RPA1163 (Rhodopseudomonas palustris, UniProt Q6NAM1, H155N); assay: isothermal microcalorimetry steady-state kinetics; format: biochemical; settings: read-out: Fluoroacetate / Km; 100 mM Tris-H2SO4 pH 8.5, 30°C
[3] = target: fluoroacetate dehalogenase (FAcD) RPA1163 (Rhodopseudomonas palustris, UniProt Q6NAM1, W156H); assay: isothermal microcalorimetry steady-state kinetics; format: biochemical; settings: read-out: Fluoroacetate / Km; 100 mM Tris-H2SO4 pH 8.5, 30°C
[4] = target: fluoroacetate dehalogenase (FAcD) RPA1163 (Rhodopseudomonas palustris, UniProt Q6NAM1, W185F); assay: isothermal microcalorimetry steady-state kinetics; format: biochemical; settings: read-out: Fluoroacetate / Km; 100 mM Tris-H2SO4 pH 8.5, 30°C
[5] = target: fluoroacetate dehalogenase (FAcD) RPA1163 (Rhodopseudomonas palustris, UniProt Q6NAM1, F40A); assay: isothermal microcalorimetry steady-state kinetics; format: biochemical; settings: read-out: Fluoroacetate / Km; 100 mM Tris-H2SO4 pH 8.5, 30°C
[6] = test system: O=C(O)CCl; assay: isothermal microcalorimetry steady-state kinetics; format: biochemical, Rhodopseudomonas palustris; settings: 100 mM Tris-H2SO4 pH 8.5, 30°C
[7] = target: the molecule itself; assay: crystal structure

Row | Molecule | Km [6] | kcat [6] | kcat/Km [6] | other results
1 | O=C(O)CF [fluoroacetate] |  |  |  | Km [1]: 1.7 ± 0.2 mM; Km [2]: 2.9 ± 0.2 mM; Km [3]: 8 ± 3 mM; Km [4]: 3.3 ± 0.6 mM; Km [5]: 4.4 ± 0.8 mM
2 | fluoroacetate dehalogenase (FAcD) RPA1163 (Rhodopseudomonas palustris CGA009; W156H) | 6 ± 1 mM | 0.00167 ± 0.000333 s⁻¹ | 0.27 M⁻¹ s⁻¹ | 
3 | fluoroacetate dehalogenase (FAcD) RPA1163 (Rhodopseudomonas palustris CGA009; Y219F) | 1.00 ± 0.07 mM | 0.007 ± 0.000667 s⁻¹ | 7 M⁻¹ s⁻¹ | 
4 | fluoroacetate dehalogenase (FAcD) RPA1163 (Rhodopseudomonas palustris CGA009; W185F) | 1.0 ± 0.3 mM | 0.00533 ± 0.000667 s⁻¹ | 5 M⁻¹ s⁻¹ | 
5 | fluoroacetate dehalogenase (FAcD) RPA1163 (Rhodopseudomonas palustris CGA009; H155N) | 2.0 ± 0.3 mM | 0.0883 ± 0.00833 s⁻¹ | 45 M⁻¹ s⁻¹ | 
6 | fluoroacetate dehalogenase (FAcD) RPA1163 (Rhodopseudomonas palustris CGA009; F40A) | 1.5 ± 0.4 mM | 0.000483 ± 0.00015 s⁻¹ | 0.32 M⁻¹ s⁻¹ | 
7 | fluoroacetate dehalogenase RPA1163 (wild type) (enzyme, Rhodopseudomonas palustris CGA009) MPDLADLFPGFGSEWINTSSGRIFARVGGDGPPLLLLHGFPQTHVMWHRVAPKLAERFKVIVADLPGYGWSDMPESDEQHTPYTKRAMAKQLIEAMEQLGHVHFALAGHDRGARVSYRLALDSPGRLSKLAVLDILPTYEYWQRMNRAYALKIYHWSFLAQPAPLPENLLGGDPDFYVKAKLASWTRAGDLSAFDPRAVEHYRIAFADPMRRHVMCEDYRAGAYADFEHDKIDVEAGNKIPVPMLALWGASGIAQSAATPLDVWRKWASDVQGAPIESGHFLPEEAPDQTAEALVRFFSAAP |  |  |  | stoichiometry N [7]: 2

Reference: publication PMC3101105 (Journal of the American Chemical Society, 2011)
